Results from article PMC6520018.
Numbering of substitutions follows the chain as printed. Read-outs that look alike come from different tables or passages of the source.

Assays:
Experiment in all cases: EMSA
[1] = biological target: T1, AtALBA2 (Arabidopsis thaliana, UniProt O22969 1-130)
T1 sequence: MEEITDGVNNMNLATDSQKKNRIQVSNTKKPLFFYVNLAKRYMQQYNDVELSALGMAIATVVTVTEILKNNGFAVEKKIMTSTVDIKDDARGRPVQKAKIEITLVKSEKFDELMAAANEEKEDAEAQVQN

[2] = biological target: T2, AtALBA2 K30E (Arabidopsis thaliana, UniProt O22969 1-130, K30E)
T2 sequence: T1 sequence with K30E

[3] = biological target: T1, AtALBA2; remark: listed apart in the source

B1: dsDNA (EMSA-DNA) (dsDNA)
DNA 1: TCGAATCTCATCATCGCCGC
DNA 2: GCGGCGATGATGAGATTCGA
[1]
  binding result: binds
[2]
  binding result: no binding

B2: artificial R-loop (mixed)
DNA 1: GCTCGCAAACTACTTAGATGTCATCCGCGAGG
DNA 2: CCTCGCAAGCGGCGATGATGAGATTCGAAAGCGAGC
RNA: UCGAAUCUCAUCAUCGCCGC
[3]
  binding result: binds
